Measured values taken from patent publication US20100099609A1.

Key:
[1] = target: Aβ1-17, the 17 first amino acids of Aβ (UniProt P05067); assay: concentration-dependent binding of recombinant netrin-1 to the peptide; format not stated
Aβ1-40 = Aβ1-40 (UniProt P05067); assay: concentration-dependent binding of recombinant netrin-1 to the Aβ peptide; format not stated

- Kd [1]: 0.03 µM
- Kd (Aβ1-40): 0.022 µM
Substance: recombinant netrin-1 (species not stated) (ligand)
